Positions count from the first letter of the chain named. Names and notes keep the numbering of the source.
B1: KicGAS L17R (natural protein, UniProt Q2HR80 1-131, looked up)
chain: MAAPRGRPKKDLTMEDRTAKISQLTVENRELRKALGSTADPRDRPLTATEKEAQLTATVGALSAAAAKKIEARVRTIFSKVVTQKQVDDALKGLSLRIDVCMSDGGTAKPPPGANNRRRRGASTTRAGVDD
B2: KicGAS P41S/P45I (natural protein, UniProt Q2HR80 1-131, looked up)
chain: B1 chain with R17L, P41S, P45I
B3: KicGAS L35R (natural protein, UniProt Q2HR80 1-131, looked up)
chain: B1 chain with R17L, L35R
B4: KicGAS L35A (natural protein, UniProt Q2HR80 1-131, looked up)
chain: B1 chain with R17L, L35A
B5: KicGAS^9-104 (domain or fragment, UniProt Q2HR80 9-104, looked up)
chain: KKDLTMEDLTAKISQLTVENRELRKALGSTADPRDRPLTATEKEAQLTATVGALSAAAAKKIEARVRTIFSKVVTQKQVDDALKGLSLRIDVCMSD

Biological target: the molecule itself
Assay: SEC

Row | Protein | stoichiometry N | binding result
1 | B1 | 2 | –
2 | B2 | – | binds
3 | B3 | – | binds
4 | B4 | – | binds
5 | B5 | – | binds

Reference: article PMC9388135 (Proceedings of the National Academy of Sciences of the …, 2022)
